Tests used:
[1] = tested on: endothelial cells (EA.hy926 and bEnd.3) and fibroblasts (3T3); test: Cellular uptake of iTEP-vaccine fusions by control cells; format: cell-based; details: 5 μM coumarin-labeled fusions, 4 h
Description: Cellular uptake of iTEP-vaccine fusions. DC2.4, EA.hy926, bEnd.3, 3T3 cells were plated at 1.5×10^5/500 μL/well in 24-well plates. When the cells attached to the bottom of the plate (4 h or overnight), the media was replaced with 500 μL of fresh media with or without 5 μM of coumarine labeled iTEP-vaccine fusions. After being cultured for 4 h at 37° C. in 5% CO2, the cells were collected and washed twice with PBS. The fluorescence of the cells was measured by flow cytometry (collecting 5×10^4 events per sample).

[2] = Thermally-induced reversible phase transition (turbidity OD350 vs temperature); format: physicochemical
From the text: Characterization of thermally-induced, reversible, inverse phase transition of iTEPs and the iTEPB-iTEPA-pOVA fusion. The phase transitions of iTEP or iTEP fusions were characterized by turbidity changes of sample solutions as a function of temperature. Specifically, the optical density at 350 nm (OD350) of a sample solution was monitored using an UV-visible spectrophotometer equipped with a multi-cell thermoelectric temperature controller (Cary 300, Varian Instruments, Walnut Creek, CA) while the solution was heated from 20° C. to 80° C. and then cooled to 20° C. at a rate of 1° C./min. The maximum first derivative of the turbidity curve of a sample was identified. The transition temperature (Tt) of the sample is the temperature that corresponds to the maximum derivative.

[3] = Quantification of free sulfhydryl groups (Ellman's method); format: physicochemical
Description: Quantification of free sulfhydryl groups of RED-NP after reducing treatments. Twenty mg of RED-NP were dissolved in 2 mL of H2O and treated with 1 mM of GSH for 16 h. The solution was then dialyzed (membrane cutoff MW: 3,500 Dalton) in deionized water at 4° C. for 24 h. Then the sample was concentrated to 0.5 mL using Amicon centrifugal filter devices (Millipore, USA). Numbers of free sulfhydryl groups of RED-NP were determined by Ellman's method. Briefly, 250 μL of sample and 50 μL of Ellman's reagent (Thermo Scientific, USA) were added to 2.5 mL of reaction buffer (0.1 M sodium phosphate, pH 8.0, 1 mM EDTA). After 15 min of incubation at room temperature, the OD412 was measured. To generate a standard curve of free sulfhydryl groups, OD412 of serial dilutions of cysteine hydrochloride monohydrate was measured. The serial OD412 values were plotted against concentrations of cysteine hydrochloride monohydrate to generate a standard curve. Concentrations of free sulfhydryl groups in the RED-NP samples were determined from the standard curve and used to calculate numbers of free sulfhydryl groups per iTEP-vaccine fusion molecules.

B1: ST-NP: stable NP of the fusion iTEPB70-iTEPA56-pOVA (SEQ ID NO: 60) (protein)
chain: GGAGVPGGAGVPGGAGVPGGAGVPGGAGVPGGAGVPGGAGVPGGAGVPGGAGVPGGAGVPGGAGVPGGAGVPGGAGVPGGAGVPGGAGVPGGAGVPGGAGVPGGAGVPGGAGVPGGAGVPGGAGVPGGAGVPGGAGVPGGAGVPGGAGVPGGAGVPGGAGVPGGAGVPGGAGVPGGAGVPGGAGVPGGAGVPGGAGVPGGAGVPGGAGVPGGAGVPGGAGVPGGAGVPGGAGVPGGAGVPGGAGVPGGAGVPGGAGVPGGAGVPGGAGVPGGAGVPGGAGVPGGAGVPGGAGVPGGAGVPGGAGVPGGAGVPGGAGVPGGAGVPGGAGVPGGAGVPGGAGVPGGAGVPGGAGVPGGAGVPGGAGVPGGAGVPGGAGVPGGAGVPGGAGVPGGAGVPGGAGVPGGAGVPGGAGVPGGAGVPGGGVLPGVGGVLPGVGGVLPGVGGVLPGVGGVLPGVGGVLPGVGGVLPGVGGVLPGVGGVLPGVGGVLPGVGGVLPGVGGVLPGVGGVLPGVGGVLPGVGGVLPGVGGVLPGVGGVLPGVGGVLPGVGGVLPGVGGVLPGVGGVLPGVGGVLPGVGGVLPGVGGVLPGVGGVLPGVGGVLPGVGGVLPGVGGVLPGVGGGGGGGGGCGGGGGGGGCGGGGGGGGCGGGGGGGGCGESIINFEKLTESIINFEKLTGG
- uptake by endothelial cells and fibroblasts relative to the MS-NP [1]: either the same amount or less

B2: G(GAGVPG)70G(GVLPGVG)28G(ESIINFEKLT)2GG (protein)
chain: GGAGVPGGAGVPGGAGVPGGAGVPGGAGVPGGAGVPGGAGVPGGAGVPGGAGVPGGAGVPGGAGVPGGAGVPGGAGVPGGAGVPGGAGVPGGAGVPGGAGVPGGAGVPGGAGVPGGAGVPGGAGVPGGAGVPGGAGVPGGAGVPGGAGVPGGAGVPGGAGVPGGAGVPGGAGVPGGAGVPGGAGVPGGAGVPGGAGVPGGAGVPGGAGVPGGAGVPGGAGVPGGAGVPGGAGVPGGAGVPGGAGVPGGAGVPGGAGVPGGAGVPGGAGVPGGAGVPGGAGVPGGAGVPGGAGVPGGAGVPGGAGVPGGAGVPGGAGVPGGAGVPGGAGVPGGAGVPGGAGVPGGAGVPGGAGVPGGAGVPGGAGVPGGAGVPGGAGVPGGAGVPGGAGVPGGAGVPGGAGVPGGAGVPGGAGVPGGAGVPGGESIINFEKLTESIINFEKLTGG
- temperature of sharp increase of turbidity (formation of aggregates) [2]: 70 °C
- Tt (cooling) ([2]; 25 μM in H2O): 73.70 ± 0.23 °C
- Tt (heating) ([2]; 25 μM in H2O): 75.40 ± 0.14 °C

B3: RED-NP: reductive-environment dependable NP, disulfide stabilized fusion iTEPB70-iTEPA28-(G8C)4-pOVA (SEQ ID NO: 61) (protein)
chain: GGAGVPGGAGVPGGAGVPGGAGVPGGAGVPGGAGVPGGAGVPGGAGVPGGAGVPGGAGVPGGAGVPGGAGVPGGAGVPGGAGVPGGAGVPGGAGVPGGAGVPGGAGVPGGAGVPGGAGVPGGAGVPGGAGVPGGAGVPGGAGVPGGAGVPGGAGVPGGAGVPGGAGVPGGAGVPGGAGVPGGAGVPGGAGVPGGAGVPGGAGVPGGAGVPGGAGVPGGAGVPGGAGVPGGAGVPGGAGVPGGAGVPGGAGVPGGAGVPGGAGVPGGAGVPGGAGVPGGAGVPGGAGVPGGAGVPGGAGVPGGAGVPGGAGVPGGAGVPGGAGVPGGAGVPGGAGVPGGAGVPGGAGVPGGAGVPGGAGVPGGAGVPGGAGVPGGAGVPGGAGVPGGAGVPGGAGVPGGAGVPGGAGVPGGAGVPGGAGVPGGGVLPGVGGVLPGVGGVLPGVGGVLPGVGGVLPGVGGVLPGVGGVLPGVGGVLPGVGGVLPGVGGVLPGVGGVLPGVGGVLPGVGGVLPGVGGVLPGVGGVLPGVGGVLPGVGGVLPGVGGVLPGVGGVLPGVGGVLPGVGGVLPGVGGVLPGVGGVLPGVGGVLPGVGGVLPGVGGVLPGVGGVLPGVGGVLPGVGGCGCGCGCGESIINFEKLTESIINFEKLTGG
- free sulfhydryl groups, on average ([3]; after the treatment of 1 mM of GSH): two
- free sulfhydryl groups, on average ([3]; before GSH treatment): zero

Source: patent US11957762B2, “Immune tolerant and non-immune tolerant elastin-like recombinant peptides and methods of use” (University of Utah Research Foundation, priority 2015, dated 2024)
